Molecular target: T1, SenRc (His-tagged response regulator) (Streptomyces coelicolor A3(2)) (UniProt Q9KXW5)
T1 sequence: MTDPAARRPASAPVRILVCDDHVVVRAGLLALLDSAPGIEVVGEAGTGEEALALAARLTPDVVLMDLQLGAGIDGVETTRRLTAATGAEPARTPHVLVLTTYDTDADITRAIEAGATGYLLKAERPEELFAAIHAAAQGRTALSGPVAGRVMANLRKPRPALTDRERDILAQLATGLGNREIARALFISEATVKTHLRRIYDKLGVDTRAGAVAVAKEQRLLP
Assay: EMSA
Details: 10 mM Tris-HCl pH 7.5, 5% glycerol, 40 mM KCl, 1 mM MgCl2, 2 mM DTT, 10 ug/ml BSA; 30 C, 15 min; 30 ul with 20 ng or 25 ng (Methods) DNA; 7% …

Sequence | binding
CACCGGATACCTGTTGAAGGCCGAACGCCCCGAGGAGCTGTTCGCGGCCATCCACGCCGCCGCCCAGGGCCGTACGGCACTGTCCGGGCCGGTCGCCGGCCGGGTCATGGCCAACCTGCGCAAGCCGCGCCCCGCCCTCACCGACCGCGAGCGCGACATCCTGGCCCAGCTCGCCACCGGGCTCGGCAACCGGGAGATCGCCCGCGCCCTGTTCATCAG (double strand) [in-senRc] | no binding
CACGTCGACCTCGGCCGCATGTCCAGCGCCATCTGTCCGGGCCGCTGAGAGCACTCTCCAGCACCTCCGGATTCCCCGCATTCACCTCGCTCCCGCGCAATGACGCGCACGCGTGTCTCACGTATGCCCACGTAGTGCCATGCGCCATGCGCGCAGGTCAGAGCCGTTTCCACCTGTCTCCAAAGGACGTGTCACACCATGGCCGCCACTC (double strand) [up-SCO6102] | binds
CTCGTACGTCCGTTTCGGGGGCTCGAAGACGGCTTCGCGCCCCCCGCCGTGCCCCCACGCTTACACGTTCCGGCCTGTACGCGTCCGTTTCCGGCACCCCAAATGAACCGTCCCTGGCTCCAAGGTGAACTCTGGGCGACGAGTGTTCGAGGTCGCACCCGGATGGCTGGGGCCGGACGGTTCGCCGTGCCTAACCTGGAGACATGGACGTGAAC (double strand) [up-SCO4229] | binds
GAAAGCATGGGTGTTAAAGTCGTGTGCATGAAGCAAGCAGCCGCGCCCACCACACCACAGCGCCTCGCGCTCGTGGCGCGCCTGCACGTGGACCTCTGCCGGTGCGCGTCCGCGAACTGTCGCCCCTGACGTTCCCCCCTCACCAGTCGTCCCCACGTCAGCTCAGCGCGTCCCATCCCGCGTCCCGTCCCCCTACGGAGCATGTCCGTGTG (double strand) [up-SCO4498] | binds
GAGGAAGCCCGGTGCGAATCCGGCGCGGTCCCGCCACTGTGACCGGGGACAGGATCCCCGGGAGCCAGGAACTCTCGCCGCCGTGCTCTTCGAACCAGGGCGCGGACACCCTGAGTGAGGACCTATCGCCATGCGCGGCTGCCGTTCCGGGCTCACCAGCGACACGCTTCGACTTCCCCTTCCCACGGCCGGTTGAGCCGTGCGTGCC (double strand) [up-SCO1847] | binds
GAGTGGCGGCCATGGTGTGACACGTCCTTTGGAGACAGGTGGAAACGGCTCTGACCTGCGCGCATGGCGCATGGCACTACGTGGGCATACGTGAGACACGCGTGCGCGTCATTGCGCGGGAGCGAGGTGAATGCGGGGAATCCGGAGGTGCTGGAGAGTGCTCTCTTCAAGCTTGACAGATGGCGCTGGACATGCGGCCGAGGTCGACGTG (double strand) [up-SCO6102*] | no binding
GGCACGTGCGCGCACGCCTGTCCAGTCCGAGGACCTGCCGACAGTGCGCCCGGCCGCCCTGGCCCGGGTGCCATGACGTCCGGGCCTCGCGGAGTGGGCCGGTGGACGCGACGCCGCGTGCGCTCGTGAGCTGCCCCCTGCCCTCCCTCCGCCGGGCCCCGTGCCGAGCGAGGGAGTGCTCCACGTGACCATCGCGCCAG (double strand) [up-SCO5226] | binds
GTTCACGTCCATGTCTCCAGGTTAGGCTCGTCGAAGATCAAGCTTGAGCCATCCGGGTGGGACCTCGAACACTCGTCGCCCAGAGTTCACCTTGGAGCCAGGGACGGTTCATTTGGGGTGCCGGAAACGGACGCGTACAGGCCGGAACGTGTAAGCGTGGGGGCACGGCGGGGGGCGCGAAGCCGTCTTCGAGCCCCCGAAACGGACGTACGAG (double strand) [up-SCO4229*] | no binding
